Measured values taken from US11839630B2, “CAR-T cells targeting IL-1RAP and their use” (ETABLISSEMENT FRANCAIS DU SANG, priority 2017, dated 2023).

What was measured:
HSCs = test: IL-1RAP cell surface staining of healthy HSCs; type: binding, human
Experimental: FIG. 23: Effect of IL-1RAP CAR T cells on healthy hematopoietic cells and efficiency of the safety suicide gene iCASP9 cassette. (A) IL-1RAP cell surface expression on peripheral blood (left) or bone marrow (right) cells from healthy donors (n=5). SSC-A/CD45+ allowed discrimination of subpopulations as lymphocytes (SSC-A low), monocytes (CD33+), granulocytes (SSC-A high), or HSCs (CD33−/CD34+). RFI was calculated from isotype staining and provided in each window. (B) Representative (1 of 3) IL-1RAP staining of whole human cord blood cells. IL-1RAP staining is provided for whole CD34+, CD34+/CD38−, and CD34+/CD38+ HSC cord blood subpopulations. […] Percentages were calculated using absolute cell number determined using Trucount™ tubes based on 5000 fluorescent-bead cytometry acquisition. […] The quantification was performed after acquiring 5000 fluorescent beads. […] Cell killing was calculated as follows: % Dead cells=[1−(absolute number of viable cells in AP1903-treated cells/absolute number of viable cells in untreated cells)]×100. […] (G) Absolute quantification of IL-1RAP CAR T cells injected in a tumor (CML KU812, i.v.) xenograft NSG model 24 h after i.p. AP1903 (white bars) treatment (n=3 mice/group). […]

IL-1RAP = biological target: T1, IL-1RAP (Homo sapiens, UniProt Q9NPH3); test: Western blot with #E3C3 mAb; type: binding; details: leukemic cell line lysates; #E3C3 diluted 1:10^3
T1 sequence (Q9NPH3 21-570): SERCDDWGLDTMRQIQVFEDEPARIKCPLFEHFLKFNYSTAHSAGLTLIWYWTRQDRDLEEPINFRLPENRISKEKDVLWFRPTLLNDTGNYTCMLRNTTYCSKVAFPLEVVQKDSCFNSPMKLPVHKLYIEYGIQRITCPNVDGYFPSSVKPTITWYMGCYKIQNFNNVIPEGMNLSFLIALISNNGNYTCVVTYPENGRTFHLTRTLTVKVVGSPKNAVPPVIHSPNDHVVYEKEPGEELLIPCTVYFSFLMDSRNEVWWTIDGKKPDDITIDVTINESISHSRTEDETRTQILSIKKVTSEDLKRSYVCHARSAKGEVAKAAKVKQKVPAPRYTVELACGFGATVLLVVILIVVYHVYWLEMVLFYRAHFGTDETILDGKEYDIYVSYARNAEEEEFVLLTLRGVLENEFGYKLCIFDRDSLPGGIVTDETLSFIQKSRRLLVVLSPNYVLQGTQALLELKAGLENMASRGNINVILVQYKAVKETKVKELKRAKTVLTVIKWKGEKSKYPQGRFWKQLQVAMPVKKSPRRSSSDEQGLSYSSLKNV
From the text: FIG. 1: Use of #E3C3 mAb in western blot. The leukemic cell lines KU812, KG-1, Nalm-20, Jurkat, and Raji are used. Transfected HT1080 cell line with IL-1RAP cDNA variant was used as control. […] Line a: detection of IL-1RAP (72 kDA), Line b: detection of the control actin (43 kDA), *: weak signal.
Whole-cell, subcellular or secreted protein fractions of cells listed in example 1 were obtained after sonication and suspended in RIPA lysis and extraction buffer (ThermoFisher Scientific) supplemented with a protease inhibitor cocktail (complete Mini EDTA-free; Roche, Switzerland). Transfected HT1080 cell line with IL-1RAP cDNA variant 1 (NM_002182.2, NCBI) was used as control. […] Transferred proteins on PDVF membranes were probed overnight with either primary IL-1RAP #E3C3 (diluted at 1:10^3), CD3zeta (BD Pharmigen, clone #8D3) or β-actin (1:10^3, clone AC15, #A5441, Sigma-Aldrich) respectively for IL-1RAP, CAR or β-actin expression. Immunodetection staining was performed with a secondary polyclonal antibody sheep anti-mouse IgG (#515-035-062, Jackson, USA). Detection was performed with a camera and Bio-1D software (Vilber-Lourmat, Collegien, France).

[1] = tested on: IL-1RAP+ leukemia expressing stem cells CD34+CD38+ or CD34+CD38-; test: Flow cytometry immunophenotyping of primary cells from CML patients; type: binding, human; details: bone marrow or peripheral blood of patient at diagnosis or after 12 months of Imatinib
From the text: FIG. 3: Immunophenotyping on peripheral blood (PM) or bone marrow (BM) of 2 CML positive patients at diagnosis (Diag) or after Imatinib (IM) treatment. IL-1RAP (#E3C3) was used in combination with CD34+ and CD38− fluorescent staining. Fluorochrome-conjugated isotype control mAbs from the different mAbs were systematically used.
Hematopoietic stem cells from CML patients were tracked using a panel of CD45, CD34, CD38, CD33, CD133, CD117 including murine Alexa Fluor® 488 labelled IL-1RAP antibody clone #E3C3. Transduced cells were stained using a panel of antibodies including CD3, CD4, CD8, and CD19 in order to differentiate helper or cytotoxic GMTC. Naïve, central or memory T cells subsets were analyzed using a panel of CD45RA, CD62L, CD95, CCR7 monoclonal antibodies. Cells were collected using a FACSCANTO™ II cytometer (BD Biosciences, Le Pont de Claix, France) and analyzed using the DIVA 6.1 software (BD Biosciences, Le Pont de Claix, France).
Immunophenotyping on peripheral blood or bone marrow of 2 CML-positive patients without or after Imatinib (TKI) treatment has been performed. IL-1RAP (#E3C3) was used in combination with CD34^+ and CD38^− fluorescent staining. Fluorochrome-conjugated isotype control monoclonal antibodies from the different monoclonal antibodies were systematically used.

B1: #E3C3: mouse anti-hIL-1RAP monoclonal antibody subclone generated by standard hybridoma technique; VH SEQ ID NO: 2, VL SEQ ID NO: 4 (antibody, V domains shown)
VH: MGWSCIILFLVATATGVNSQVQLQQPGAELMMPGASVKVSCEASGYTFTDSWMHWVKQRPGQGLEWIGAIDPSDSYTTYNQKFTGKATLSVDESSNTAYMQLSSLTSEDSAVYYCARYYSGSNYISPFPYWGQGTLVTVSA
VL: MESQIQVFVFVFLWLSGVDGDIVMTQSHKFMSTSVGDRVTITCKASLDVSTAVAWYQQKPGQSPKLLIYSASYRYTGVPDRFTGSGSGTDFTFTISSVQAEDLAVYYCQQHYSPPFTFGSGTNLEIK
modifications: Amino acid sequence of chain H (VH) of murine scFv anti-IL-1RAP; Amino acid sequence of chain K (VL) of murine scFv anti-IL-1RAP
detection of HSCs (HSCs; bone marrow from healthy donors or normal cord blood): did not detect | RFI of HSC staining (HSCs; bone marrow from healthy donors, n=5): < 1.2 | detection in western blot (IL-1RAP): reveals KU812 | discrimination of IL-1RAP+ stem cell subpopulations [1]: allowed to discriminate IL-1RAP+ leukemia expressing stem cells
